Test results: PMC9280364, “MdNAC4 Interacts With MdAPRR2 to Regulate Nitrogen Deficiency-Induced Leaf Senescence in Apple (Malus domestica)”

T1: MdNAC4-GST (Malus domestica, UniProt B6DXL4 1-350)
T1 sequence: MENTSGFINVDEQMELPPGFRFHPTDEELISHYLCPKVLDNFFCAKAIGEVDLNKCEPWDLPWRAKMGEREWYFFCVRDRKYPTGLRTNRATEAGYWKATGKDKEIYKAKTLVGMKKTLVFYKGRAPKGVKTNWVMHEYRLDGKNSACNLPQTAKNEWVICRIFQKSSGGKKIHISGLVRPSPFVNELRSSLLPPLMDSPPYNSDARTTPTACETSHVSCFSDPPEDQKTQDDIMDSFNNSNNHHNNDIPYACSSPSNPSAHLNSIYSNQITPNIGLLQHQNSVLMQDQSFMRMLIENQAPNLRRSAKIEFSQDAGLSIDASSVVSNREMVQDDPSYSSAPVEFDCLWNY

B1: MdPAO promoter probe (ABRE) (dsDNA)
DNA 1: AGTTATCCATACGTGTAAAACCAAT
DNA 2: ATTGGTTTTACACGTATGGATAACT
B2: MdPAO Mut probe (dsDNA)
DNA 1: AGTTATCCATCCGTCTAAAACCAAT
DNA 2: ATTGGTTTTAGACGGATGGATAACT
B3: MdNYC1 promoter probe (ABRE) (dsDNA)
DNA 1: ATATAGGCACGTGAAGGGAGGACAGAGATG
DNA 2: CATCTCTGTCCTCCCTTCACGTGCCTATAT

Key:
MdNAC4-GST [1] = biological target: T1, MdNAC4-GST; experiment: EMSA; unlabeled probe competes; EMSA binding buffer (composition not given), 24 °C, 30 min in the dark; details: protein: recombinant; tags: GST (pGEX-4T-1 type primers GST-MdNAC4-F/R); chain copies: 2; label: biotin; blunt
MdNAC4-GST [2] = biological target: T1, MdNAC4-GST; experiment: EMSA; EMSA binding buffer (composition not given), 24 °C, 30 min in the dark; details: protein: recombinant; tags: GST (pGEX-4T-1 type primers GST-MdNAC4-F/R); chain copies: 2; blunt

Binder	binding result (MdNAC4-GST [1])	binding result (MdNAC4-GST [2])
B1	binds	
B2		no binding
B3	binds	
